Experimental data from PMC5606850, “Acidic C-terminal domains autoregulate the RNA chaperone Hfq” (eLife, 2017).
*: point of attachment. FITC = O=C1OC2(c3ccc(O)cc3Oc3cc(O)ccc32)c2ccc(NC(=S)*)cc21; Ahx = NCCCCCC(=O)O

What was measured:
[1] = protein stability of Hfq65-K3 mutants; format: physicochemical, E. coli
[2] = SDS-PAGE oligomerization of purified Hfq variants; format: physicochemical, E. coli; details: 4–20% SDS-PAGE, ~2.8 µg protein, 2% SDS, boiled
Protocol: (§1) Figure 2. CTD and RNA occupy the same rim binding site. […] The CTD linker is shown in purple, the acidic tip in red and the N-terminal FITC as a yellow star. Hfq core is shown in cyan, with basic rim patches in dark blue. […] (C) Reaction scheme for annealing an RNA molecular beacon to a target RNA (open bar) ([Hopkins et al., 2011]; [Panja et al., 2015]). (D) Progress curves for annealing 50 nM molecular beacon and 100 nM Target by 50 nM Hfq65 hexamer at 30°C, measured by stopped-flow fluorescence. See Figure 2—figure supplement 3 for further data. (E) Contribution of core residues to CTD binding. Interaction energy (Expected Energetic Contribution; EEC) in silico for a core residue in the Rosetta models (solid symbols and solid line; adjusted R^2 = 0.77) or the average annealing rates for Target and Target-A18 relative to Hfq65 (open symbols and dashed line; adjusted R^2 = 0.94) versus experimental CTD binding energy (∆∆G°) for each Hfq65 variant. The binding energy, ∆∆G° = –RTln(Kd^MUT/Kd), reflects the perturbation to CTD binding by a mutation in Hfq65. The interaction energy in silico or EEC is defined as the average energy of a tail–core interaction multiplied by the average number of tail–core interactions per model (Figure 1B, top and Equation 3). The relative annealing rate for Hfq65 variants, krel = kobs^MUT/kobs^WT, is <1 if the mutated residue is important for RNA annealing. Figure 2—figure supplement 1. SDS-PAGE of purified Hfq variants. WT Hfq assembles into hexamers and dodecamers that are stable to SDS-PAGE, which can be used to evaluate the oligomerization of Hfq variants. Purified Hfq protein (~2.8 µg) was separated on a 4–20% SDS-PAGE gel and stained with Coomassie blue (lanes 2–6). Samples were prepared in 2% SDS and boiled before loading. Lane 1, Protein standards (10 µL All Blue Precision Plus, NEB). […] Annealing of 100 nM Target RNA to 50 nM beacon RNA by Hfq65 and Hfq65 variants was measured by stopped flow fluorescence at 30°C in 1 × TNK buffer. […] The change in fluorescence emission intensity was normalized to the maximum fluorescence within an experiment. […]

[3] = tested on: RNA molecular beacon and Target RNA; assay: RNA annealing kinetics (molecular beacon and Target RNAs), stopped-flow fluorescence; format: biochemical; details: 50 nM molecular beacon, 100 nM Target, Hfq65 variants, TNK buffer, 30 °C
Protocol: as §1, with “variants.” for “variants. WT Hfq assembles into hexamers and dodecamers that are stable to SDS-PAGE, which can be used to evaluate the oligomerization of Hfq variants. Purified Hfq protein (~2.8 µg) was separated on a 4–20% SDS-PAGE gel and stained with Coomassie blue (lanes 2–6). Samples were prepared in 2% SDS and boiled before loading. Lane 1, Protein standards (10 µL All Blue Precision Plus, NEB).”
To determine how much core residues that bind the CTD contribute to Hfq’s RNA annealing activity, we compared the effect of rim mutations on the rate of base pairing between an RNA molecular beacon and the 16 nt Target RNA by stopped-flow fluorescence spectroscopy (Figure 2C) ([Hopkins et al., 2011]). […]

[4] = biological target: Hfq65 (Hfq core, CTD deleted) (Escherichia coli, UniProt P0A6X3 1-65); assay: competition; displaces CTD-FITC peptide; strong; IC50 only in figure; Anisotropy: 10 mM Tris-HCl pH 7.5, 50 mM NaCl, 50 mM KCl, 30 C; CTD-FITC competition: 50 mM Tris-HCl pH 7.5, 30 C; pUC19 EMSA: 40 mM Tris-HCl pH 7.5, 0.14 mM EDTA, 35 mM NH4Cl, 3.7% glycerol, 25 C (competition legend 30 C); details: protein: recombinant, tags: untagged, chain copies: 6
[5] = biological target: Hfq102 (wild-type Hfq) (Escherichia coli, UniProt P0A6X3 1-102); assay: competition; vs pUC19 EMSA; strongest, saturates at 1:1; Anisotropy: 10 mM Tris-HCl pH 7.5, 50 mM NaCl, 50 mM KCl, 30 C; CTD-FITC competition: 50 mM Tris-HCl pH 7.5, 30 C; pUC19 EMSA: 40 mM Tris-HCl pH 7.5, 0.14 mM EDTA, 35 mM NH4Cl, 3.7% glycerol, 25 C (competition legend 30 C); details: protein: recombinant, tags: untagged, chain copies: 6
[6] = tested on: Hfq102·pUC19 complex; assay: RNA or DNA competition of Hfq102·pUC19 complexes, EMSA; format: binding, E. coli
Protocol: Figure 5. CTD and RNAs inhibit DNA binding to Hfq by obstructing the basic rim patch. (A, B) Agarose gel electrophoretic mobility shift assays of 0–3.3 μM hexamer Hfq102, Hfq102-R16A, Hfq65 or Hfq65-R16A binding to 6 nM linear pUC19 DNA ([…]) at 25°C, stained with SYBR Gold. Hfq65 forms large aggregates that fail to enter the gel (Figure 5—figure supplement 1). (C, D) Line densitometry of DNA migration in (A, B). Free pUC19 (no Hfq) is shown in light grey. Samples with increasing Hfq concentration are shown in darker shades of grey. (E, F) RNA competition. Complexes of 0.5 μM Hfq102 hexamer and 6 nM linear pUC19 (black) were challenged by 0–2 μM RNA or DNA competitor (darker shades of red). pUC19 control in the absence of Hfq is shown in light grey. […] Digestion of Hfq65 and Hfq65-R16A with Proteinase K liberates DNA from Hfq•DNA aggregates, allowing it to be detected (lanes 9 and 10). […] The small proportion of Hfq65·DNA complexes remaining in the supernatant were only detected in the gel after treatment with salt. […]
Samples (10 µL) containing linear pUC19 (0.145 nmol bp), 0–3.333 µM Hfq hexamer, in 40 mM Tris-HCl pH 7.5, 0.14 mM EDTA, 35 mM NH4Cl, 3.7% (v/v) glycerol, 0.05% (w/v) bromophenol blue were incubated at 25°C for 30 min. […] The fluorescence intensity was measured on a line from the bottom edge of the well through the middle of the lane to visualize the migration of pUC19. […]

[7] = biological target: T1, E. coli Hfq65 (Hfq core; truncated variant lacking the CTD) (E. coli, UniProt P0A6X3 1-65); assay: fluorescence polarisation; 45 nM FITC-labelled peptide titrated with Hfq65 or variant (0–100 µM Hfq monomer), 50 mM Tris·HCl pH 7.5 (low salt), 30 °C, duplicate, single-site isotherm; Kd in Hfq monomer; details: both partners purified
T1 construct: Untagged; Forms a homohexameric ring; also called core Hfq; Hfq65 core

## Hfq65-K3S
[1]
  formation of stable protein: neither Hfq65-K3S nor Hfq65-K3Q formed stable proteins

## Hfq65-K3Q
[1]
  formation of stable protein: neither Hfq65-K3S nor Hfq65-K3Q formed stable proteins

## Hfq102-R16A: rim mutation R16A of full-length Hfq (printed R16A in b39)
[2]
  oligomeric state on SDS-PAGE: only forms hexamer (blue dot) and monomer

## Hfq65-Q35A
[3]
  observed annealing rate of Hfq65 rim mutants: relatively unaffected

B1: DsrA sRNA (structured_RNA)
RNA: GGGAACACAUCAGAUUUCCUGGUGUAACGAAUUUUUUAAGUGCUUCUUGCUUAAGCAAGUUUCAUCCCGACCCCCUCAGGGUCGGGAUUUUUUU
[4]
  binding result: binds

B2: RprA sRNA (structured_RNA)
RNA: GGGACGGUUAUAAAUCAACAUAUUGAUUUAUAAGCAUGGAAAUCCCCUGAGUGAAACAACGAAUUGCUGUGUGUAGUCUUUGCCCAUCUCCCACGAUGGGCUUUUUUUU
[4]
  binding result: binds

B3: ChiX sRNA (structured_RNA)
RNA: GGGACACCGUCGCUUAAAGUGACGGCAUAAUAAUAAAAAAAUGAAAUUCCUCUUUGACGGGCCAAUAGCGAUAUUGGCCAUUUUUUU
[4]; label: 32P in annealing EMSA
  binding result: binds
[5]; label: 32P in annealing EMSA
  binding result: binds

B4: ChiX: Class II sRNA, transcribed in vitro (nucleic acid)
chain: B3 RNA
modifications: unmodified RNA
notes: Class II sRNA, transcribed in vitro
[6]
  competition against pUC19 DNA for binding to Hfq102: strongest competitors

B5: RyhB sRNA (structured_RNA)
RNA: GGGCGAUCAGGAAGACCCUCGAGGAGAACCUGAAAGCACGACAUUGCUCACAUUGCUUCCAGUAUUACUUAGCCAGCCGGGUGCUGGCUUUUU
[4]
  binding result: binds
[5]
  binding result: binds

B6: RyhB: sRNA, transcribed in vitro (nucleic acid)
chain: B5 RNA
modifications: unmodified RNA
notes: sRNA, transcribed in vitro
[6]
  competition against pUC19 DNA for binding to Hfq102: strongest competitors

B7: BsCTD-FITC (B. subtilis Hfq CTD peptide) (peptide)
peptide: {FITC-Ahx}-QLELE-OH
SMILES: CC(C)C[C@H](NC(=O)[C@H](CCC(=O)O)NC(=O)[C@H](CC(C)C)NC(=O)[C@H](CCC(N)=O)NC(=O)CCCCCNC(=S)Nc1ccc2c(c1)C(=O)OC21c2ccc(O)cc2Oc2cc(O)ccc21)C(=O)N[C@@H](CCC(=O)O)C(=O)O
notes: Hfq, Bacillus subtilis, C-terminal end of the CTD; also called BsCTD-FITC peptide
[7]
  Kd: 8.7 µM
